According to the supplement of paper PMC11246515:
± gives the standard deviation of the averaged measurements.

Experiment: total protein half-life in vivo (active degradation + dilution); higher = more stable protein
[1] = E. coli NCM3722 delta-clpP delta-lon delta-hslV, growth: N-lim chemostat, doubling time 6 h
[2] = E. coli NCM3722 delta-clpP, growth: N-lim chemostat, doubling time 6 h
[3] = E. coli NCM3722 delta-hslV, growth: N-lim chemostat, doubling time 6 h
[4] = E. coli NCM3722 delta-lon, growth: N-lim chemostat, doubling time 6 h
[5] = E. coli NCM3722 delta-smpB, growth: N-lim chemostat, doubling time 6 h
[6] = wild type E. coli NCM3722, growth: C-lim chemostat, doubling time 6 h
[7] = wild type E. coli NCM3722, growth: C-lim chemostat, doubling time 12 h
[8] = wild type E. coli NCM3722, growth: N-lim chemostat, doubling time 6 h
[9] = wild type E. coli NCM3722, growth: N-lim chemostat, doubling time 12 h
[10] = wild type E. coli NCM3722, growth: P-lim chemostat, doubling time 12 h
[11] = wild type E. coli NCM3722, growth: C-lim chemostat, doubling time 3 h
[12] = wild type E. coli NCM3722, growth: P-lim chemostat, doubling time 6 h

## MSNPILSWRRVRALCVKETRQIVRDPSSWLIAVVIPLLLLFIFGYGINLDSSKLRVGILLEQRSEAALDFTHTMTGSPYIDATISDNRQELIAKMQAGKIRGLVVIPVDFAEQMERANATAPIQVITDGSEPNTANFVQGYVEGIWQIWQMQRAEDNGQTFEPLIDVQTRYWFNPAAISQHFIIPGAVTIIMTVIGAILTSLVVAREWERGTMEALLSTEITRTELLLCKLIPYYFLGMLAMLLCMLVSVFILGVPYRGSLLILFFISSLFLLSTLGMGLLISTITRNQFNAAQVALNAAFLPSIMLSGFIFQIDSMPAVIRAVTYIIPARYFVSTLQSLFLAGNIPVVLVVNVLFLIASAVMFIGLTWLKTKRRLD [P0AFQ2]
[1]
  total protein half-life in vivo: 6.67 ± 0.81 h
[2]
  total protein half-life in vivo: 5.62 h
[3]
  total protein half-life in vivo: 6.1 h
[4]
  total protein half-life in vivo: 5.56 h
[5]
  total protein half-life in vivo: 6.04 ± 0.15 h
[6]
  total protein half-life in vivo: 5.36 h
[7]
  total protein half-life in vivo: 12.8 h
[8]
  total protein half-life in vivo: 6.36 ± 0.5 h
[9]
  total protein half-life in vivo: 12.5 ± 3.1 h
[10]
  total protein half-life in vivo: 12.6 ± 0.43 h

## MSNWPYPRIVAHRGGGKLAPENTLASIDVGAKYGHKMIEFDAKLSKDGEIFLLHDDNLERTSNGWGVAGELNWQDLLRVDAGSWYSKMFKGEPLPLLSQVAERCREHGMMANIEIKPTTGTGPLTGKMVALAARELWAGMTPPLLSSFEIDALEAAQQAAPELPRGLLLDEWRDDWRELTARLGCVSIHLNHKLLNKARVMQLKDAGLRILVYTVNKPQRAAELLRWGVDCICTDAIDVIGPNFTAQ
[1]
  total protein half-life in vivo: 4.77 ± 0.94 h
[2]
  total protein half-life in vivo: 3.75 ± 0.46 h
[3]
  total protein half-life in vivo: 3.65 ± 0.043 h
[4]
  total protein half-life in vivo: 4.1 ± 0.021 h
[5]
  total protein half-life in vivo: 3.72 ± 0.12 h
[11]
  total protein half-life in vivo: 3.33 ± 0.72 h
[6]
  total protein half-life in vivo: 5.491 ± 0.049 h
[7]
  total protein half-life in vivo: 9.38 ± 0.43 h
[8]
  total protein half-life in vivo: 3.87 ± 0.31 h
[9]
  total protein half-life in vivo: 6.08 ± 0.18 h
[12]
  total protein half-life in vivo: 5.07 ± 0.11 h
[10]
  total protein half-life in vivo: 9.88 ± 0.3 h

## MSQDNNFSQGPVPQSARKGVLALTFVMLGLTFFSASMWTGGTLGTGLSYHDFFLAVLIGNLLLGIYTSFLGYIGAKTGLTTHLLARFSFGVKGSWLPSLLLGGTQVGWFGVGVAMFAIPVGKATGLDINLLIAVSGLLMTVTVFFGISALTVLSVIAVPAIACLGGYSVWLAVNGMGGLDALKAVVPAQPLDFNVALALVVGSFISAGTLTADFVRFGRNAKLAVLVAMVAFFLGNSLMFIFGAAGAAALGMADISDVMIAQGLLLPAIVVLGLNIWTTNDNALYASGLGFANITGMSSKTLSVINGIIGTVCALWLYNNFVGWLTFLSAAIPPVGGVIIADYLMNRRRYEHFATTRMMSVNWVAILAVALGIAAGHWLPGIVPVNAVLGGALSYLILNPILNRKTTAAMTHVEANSVE [P0AA82]
[2]
  total protein half-life in vivo: 0.878 ± 0.056 h
[11]
  total protein half-life in vivo: 2.01 h

## MSQEYIEDKEVTLTKLSSGRRLLEALLILIVLFAVWLMAALLSFNPSDPSWSQTAWHEPIHNLGGMPGAWLADTLFFIFGVMAYTIPVIIVGGCWFAWRHQSSDEYIDYFAVSLRIIGVLALILTSCGLAAINADDIWYFASGGVIGSLLSTTLQPLLHSSGGTIALLCVWAAGLTLFTGWSWVTIAEKLGGWILNILTFASNRTRRDDTWVDEDEYEDDEEYEDENHGKQHESRRARILRGALARRKRLAEKFINPMGRQTDAALFSGKRMDDDEEITYTARGVAADPDDVLFSGNRATQPEYDEYDPLLNGAPITEPVAVAAAATTATQSWAAPVEPVTQTPPVASVDVPPAQPTVAWQPVPGPQTGEPVIAPAPEGYPQQSQYAQPAVQYNEPLQQPVQPQQPYYAPAAEQPAQQPYYAPAPEQPVAGNAWQAEEQQSTFAPQSTYQTEQTYQQPAAQEPLYQQPQPVEQQPVVEPEPVVEETKPARPPLYYFEEVEEKRAREREQLAAWYQPIPEPVKEPEPIKSSLKAPSVAAVPPVEAAAAVSPLASGVKKATLATGAAATVAAPVFSLANSGGPRPQVKEGIGPQLPRPKRIRVPTRRELASYGIKLPSQRAAEEKAREAQRNQYDSGDQYNDDEIDAMQQDELARQFAQTQQQRYGEQYQHDVPVNAEDADAAAEAELARQFAQTQQQRYSGEQPAGANPFSLDDFEFSPMKALLDDGPHEPLFTPIVEPVQQPQQPVAPQQQYQQPQQPVPPQPQYQQPQQPVAPQPQYQQPQQPVAPQQQYQQPQQPVAPQQQYQQPQQPVAPQPQDTLLHPLLMRNGDSRPLHKPTTPLPSLDLLTPPPSEVEPVDTFALEQMARLVEARLADFRIKADVVNYSPGPVITRFELNLAPGVKAARISNLSRDLARSLSTVAVRVVEVIPGKPYVGLELPNKKRQTVYLREVLDNAKFRDNPSPLTVVLGKDIAGEPVVADLAKMPHLLVAGTTGSGKSVGVNAMILSMLYKAQPEDVRFIMIDPKMLELSVYEGIPHLLTEVVTDMKDAANALRWCVNEMERRYKLMSALGVRNLAGYNEKIAEADRMMRPIPDPYWKPGDSMDAQHPVLKKEPYIVVLVDEFADLMMTVGKKVEELIARLAQKARAAGIHLVLATQRPSVDVITGLIKANIPTRIAFTVSSKIDSRTILDQAGAESLLGMGDMLYSGPNSTLPVRVHGAFVRDQEVHAVVQDWKARGRPQYVDGITSDSESEGGAGGFDGAEELDPLFDQAVQFVTEKRKASISGVQRQFRIGYNRAARIIEQMEAQGIVSEQGHNGNREVLAPPPFD
[1]
  total protein half-life in vivo: 3.531 ± 0.015 h
[2]
  total protein half-life in vivo: 2.17 ± 0.29 h
[3]
  total protein half-life in vivo: 1.2 ± 0.38 h
[4]
  total protein half-life in vivo: 1.48 ± 0.059 h
[5]
  total protein half-life in vivo: 0.895 ± 0.031 h
[11]
  total protein half-life in vivo: 0.891 ± 0.042 h
[6]
  total protein half-life in vivo: 1.36 ± 0.11 h
[7]
  total protein half-life in vivo: 1.76 ± 0.29 h
[8]
  total protein half-life in vivo: 1.39 ± 0.31 h
[9]
  total protein half-life in vivo: 1.57 ± 0.13 h
[12]
  total protein half-life in vivo: 1.48 ± 0.15 h
[10]
  total protein half-life in vivo: 2.78 ± 1 h

## MSQFFYIHPDNPQQRLINQAVEIVRKGGVIVYPTDSGYALGCKIEDKNAMERICRIRQLPDGHNFTLMCRDLSELSTYSFVDNVAFRLMKNNTPGNYTFILKGTKEVPRRLLQEKRKTIGMRVPSNPIAQALLEALGEPMLSTSLMLPGSEFTESDPEEIKDRLEKQVDLIIHGGYLGQKPTTVIDLTDDTPVVVREGVGDVKPFL [P0AFR4]
[1]
  total protein half-life in vivo: 5.38 ± 0.1 h
[3]
  total protein half-life in vivo: 6.202 ± 0.062 h
[4]
  total protein half-life in vivo: 6.96 ± 1.2 h
[5]
  total protein half-life in vivo: 6.51 ± 0.8 h
[11]
  total protein half-life in vivo: 3.1 ± 0.11 h
[6]
  total protein half-life in vivo: 6.18 ± 1.4 h
[7]
  total protein half-life in vivo: 12.2 ± 1.1 h
[8]
  total protein half-life in vivo: 5.38 ± 0.017 h
[9]
  total protein half-life in vivo: 14.4 ± 1.2 h
[12]
  total protein half-life in vivo: 4.64 ± 0.17 h
[10]
  total protein half-life in vivo: 12.9 ± 1.6 h
